Reference: PMC11758377 (2026)

Molecular target: H3K4me3 peptide (Homo sapiens, UniProt P68431)
Experiment: MST

B1: BPTF-PHD PHD (protein)
chain: KLYCICKTPYDESKFYIGCDRCQNWYHGRCVGILQSEAELIDEYVCPQCQST
- Kd: 2900 nM
